Where a chain is given by its changes, count along the chain named. In names and notes the source's numbering stands. Each block holds one binder with its values, some of them ahead of it.
Columns and labels:
[1] = target: T1, TLT-1 receptor on the surface of activated human platelets (human, UniProt Q86YW5 16-311); test: flow cytometry on activated human platelets, detection: anti HPC4 tag ab.
T1 sequence: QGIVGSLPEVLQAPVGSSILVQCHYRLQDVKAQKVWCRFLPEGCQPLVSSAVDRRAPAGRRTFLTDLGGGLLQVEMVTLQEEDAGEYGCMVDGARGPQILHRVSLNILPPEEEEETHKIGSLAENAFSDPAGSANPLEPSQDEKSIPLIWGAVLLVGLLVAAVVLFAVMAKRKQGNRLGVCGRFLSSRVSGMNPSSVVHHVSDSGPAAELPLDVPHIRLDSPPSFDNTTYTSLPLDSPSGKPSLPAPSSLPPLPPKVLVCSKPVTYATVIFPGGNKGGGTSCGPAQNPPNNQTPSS

[2] = target: T2, hTF.1-219 (soluble tissue factor)
T2 chain: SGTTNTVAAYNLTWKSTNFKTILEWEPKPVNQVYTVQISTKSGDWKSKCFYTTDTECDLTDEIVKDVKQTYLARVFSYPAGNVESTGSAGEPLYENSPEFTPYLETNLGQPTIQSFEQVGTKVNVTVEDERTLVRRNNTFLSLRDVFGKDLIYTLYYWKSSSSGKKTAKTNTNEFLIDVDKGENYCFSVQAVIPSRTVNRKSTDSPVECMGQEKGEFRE

[3] = target: Fab-hTF.1-219 fusion proteins (those tested in FIG. 7)
[4] = target: mAb-hTF.1-219 fusion proteins (those tested in FIG. 7)
[5] = target: T3, GPIIbIIIa receptor on human platelets (human, UniProt P08514 32-1039; P05106 27-788); test: cell-based or functional assay
[6] = target: T3, GPIIbIIIa receptor on human platelets; test: cell-based or functional assay; remark: listed apart in the source
[7] = target: T4, human fibrinogen (HCI-0150R, Haematologic Technologies) (human, UniProt P02671 20-629; P02675 31-491; P02679 27-437, limits assumed); test: SPR (Biacore T100), TLT1 immobilised on CM5, fibrinogen as analyte
T4 construct: Chain composition is general knowledge
T4 sequence (looked up) 1: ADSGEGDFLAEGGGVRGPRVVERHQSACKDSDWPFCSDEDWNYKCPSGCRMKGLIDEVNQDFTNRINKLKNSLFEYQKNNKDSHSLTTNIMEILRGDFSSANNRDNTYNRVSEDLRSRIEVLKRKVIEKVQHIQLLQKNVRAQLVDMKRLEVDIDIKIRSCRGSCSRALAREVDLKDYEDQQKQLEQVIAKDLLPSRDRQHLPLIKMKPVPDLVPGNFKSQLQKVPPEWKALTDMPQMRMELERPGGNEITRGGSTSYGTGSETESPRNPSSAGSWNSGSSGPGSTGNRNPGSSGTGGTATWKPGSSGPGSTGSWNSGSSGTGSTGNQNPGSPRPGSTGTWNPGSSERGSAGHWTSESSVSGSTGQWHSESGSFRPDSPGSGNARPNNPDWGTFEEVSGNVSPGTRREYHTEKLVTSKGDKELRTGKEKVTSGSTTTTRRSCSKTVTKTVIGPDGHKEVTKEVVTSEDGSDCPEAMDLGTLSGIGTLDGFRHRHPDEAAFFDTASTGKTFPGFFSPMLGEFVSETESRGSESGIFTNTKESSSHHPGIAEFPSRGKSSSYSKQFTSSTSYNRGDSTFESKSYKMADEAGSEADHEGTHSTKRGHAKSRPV
T4 sequence (looked up) 2: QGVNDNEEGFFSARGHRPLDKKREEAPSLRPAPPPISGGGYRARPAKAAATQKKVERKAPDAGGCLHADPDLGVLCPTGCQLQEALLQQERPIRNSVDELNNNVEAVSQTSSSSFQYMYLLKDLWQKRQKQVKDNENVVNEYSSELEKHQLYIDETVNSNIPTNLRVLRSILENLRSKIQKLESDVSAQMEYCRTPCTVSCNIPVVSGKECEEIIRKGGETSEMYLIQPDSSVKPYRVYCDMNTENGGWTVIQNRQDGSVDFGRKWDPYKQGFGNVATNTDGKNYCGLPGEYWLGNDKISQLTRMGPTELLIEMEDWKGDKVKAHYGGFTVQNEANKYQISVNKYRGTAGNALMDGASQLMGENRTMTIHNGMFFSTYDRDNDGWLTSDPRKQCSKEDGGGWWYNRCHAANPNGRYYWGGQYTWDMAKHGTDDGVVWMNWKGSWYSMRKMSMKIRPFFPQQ
T4 sequence (looked up) 3: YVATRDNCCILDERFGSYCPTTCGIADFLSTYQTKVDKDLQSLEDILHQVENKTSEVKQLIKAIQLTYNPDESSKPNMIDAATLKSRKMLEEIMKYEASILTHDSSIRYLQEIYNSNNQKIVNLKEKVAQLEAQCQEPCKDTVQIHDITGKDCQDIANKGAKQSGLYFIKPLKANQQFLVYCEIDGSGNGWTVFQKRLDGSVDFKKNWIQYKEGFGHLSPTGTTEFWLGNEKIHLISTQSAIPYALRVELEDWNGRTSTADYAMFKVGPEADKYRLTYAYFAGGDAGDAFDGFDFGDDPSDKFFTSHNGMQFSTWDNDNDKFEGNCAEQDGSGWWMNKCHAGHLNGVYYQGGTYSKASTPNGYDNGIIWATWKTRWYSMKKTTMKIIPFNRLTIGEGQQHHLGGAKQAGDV
Description: (§1) Human TLT1 was immobilised to a level of approx 1000 RU on a CM5 chip (50 μg/ml diluted in Na-acetate, pH 4.0) using the standard procedure recommended by the supplier. Four-fold dilutions of human fibrinogen from 200 nM to 0.2 nM were tested for binding to the immobilized TLT1. Running and dilution buffer: 10 mM HEPES, 150 mM, 0.005% p20, pH 7.4. Regeneration was obtained by 10 mM Glycine, pH 1.7. Determination of kinetic and binding constants (kₒₙ, koff, KD) was obtained assuming a 1:1 interaction of TLT1 and fibrinogen using the Biacore T100 evaluation software.

[8] = target: T4, human fibrinogen (HCI-0150R, …); test: SPR (Biacore T100), TLT1 immobilised on CM5, fibrinogen 200 nM to 0.2 nM as analyte
Description: as §1

[9] = target: T1, TLT-1 receptor on the surface of …; test: cell-based or functional assay
[10] = target: T5, TLT-1 18-188 relipidated in 20:80 PS:PC vesicles (human, UniProt Q86YW5 18-188); test: cell-based or functional assay
T5 sequence: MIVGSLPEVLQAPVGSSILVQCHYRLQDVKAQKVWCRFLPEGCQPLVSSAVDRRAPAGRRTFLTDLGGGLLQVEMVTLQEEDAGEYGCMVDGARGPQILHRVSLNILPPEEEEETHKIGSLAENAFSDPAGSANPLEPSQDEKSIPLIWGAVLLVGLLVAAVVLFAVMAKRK

T3 sequence (P08514 32-1039, chain 1 of 2): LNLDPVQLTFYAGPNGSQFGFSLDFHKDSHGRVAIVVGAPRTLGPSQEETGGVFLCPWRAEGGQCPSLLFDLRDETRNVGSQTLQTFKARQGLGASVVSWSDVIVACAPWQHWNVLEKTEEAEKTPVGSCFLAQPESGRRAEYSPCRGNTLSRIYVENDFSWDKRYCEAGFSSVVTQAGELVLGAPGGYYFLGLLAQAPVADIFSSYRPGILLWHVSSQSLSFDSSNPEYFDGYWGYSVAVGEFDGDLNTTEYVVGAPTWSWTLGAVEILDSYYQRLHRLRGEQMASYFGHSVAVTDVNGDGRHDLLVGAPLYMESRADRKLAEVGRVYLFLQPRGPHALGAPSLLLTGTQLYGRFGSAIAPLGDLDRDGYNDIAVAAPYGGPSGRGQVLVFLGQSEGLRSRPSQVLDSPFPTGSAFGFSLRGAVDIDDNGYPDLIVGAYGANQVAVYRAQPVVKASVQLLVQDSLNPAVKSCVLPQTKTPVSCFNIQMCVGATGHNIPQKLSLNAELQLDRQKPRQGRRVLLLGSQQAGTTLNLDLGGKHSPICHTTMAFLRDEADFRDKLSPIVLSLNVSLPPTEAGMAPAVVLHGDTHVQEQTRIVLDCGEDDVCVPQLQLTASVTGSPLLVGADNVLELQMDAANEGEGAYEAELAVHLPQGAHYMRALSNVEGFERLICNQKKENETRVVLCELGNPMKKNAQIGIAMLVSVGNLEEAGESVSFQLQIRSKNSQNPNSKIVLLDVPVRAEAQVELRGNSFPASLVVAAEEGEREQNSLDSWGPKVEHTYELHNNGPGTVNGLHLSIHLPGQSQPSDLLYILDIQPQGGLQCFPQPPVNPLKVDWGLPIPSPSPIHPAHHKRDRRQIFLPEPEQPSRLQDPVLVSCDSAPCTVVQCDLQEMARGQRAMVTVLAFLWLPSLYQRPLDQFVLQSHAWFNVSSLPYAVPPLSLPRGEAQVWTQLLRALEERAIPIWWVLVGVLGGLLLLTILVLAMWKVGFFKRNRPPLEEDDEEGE
T3 sequence (P05106 27-788, chain 2 of 2): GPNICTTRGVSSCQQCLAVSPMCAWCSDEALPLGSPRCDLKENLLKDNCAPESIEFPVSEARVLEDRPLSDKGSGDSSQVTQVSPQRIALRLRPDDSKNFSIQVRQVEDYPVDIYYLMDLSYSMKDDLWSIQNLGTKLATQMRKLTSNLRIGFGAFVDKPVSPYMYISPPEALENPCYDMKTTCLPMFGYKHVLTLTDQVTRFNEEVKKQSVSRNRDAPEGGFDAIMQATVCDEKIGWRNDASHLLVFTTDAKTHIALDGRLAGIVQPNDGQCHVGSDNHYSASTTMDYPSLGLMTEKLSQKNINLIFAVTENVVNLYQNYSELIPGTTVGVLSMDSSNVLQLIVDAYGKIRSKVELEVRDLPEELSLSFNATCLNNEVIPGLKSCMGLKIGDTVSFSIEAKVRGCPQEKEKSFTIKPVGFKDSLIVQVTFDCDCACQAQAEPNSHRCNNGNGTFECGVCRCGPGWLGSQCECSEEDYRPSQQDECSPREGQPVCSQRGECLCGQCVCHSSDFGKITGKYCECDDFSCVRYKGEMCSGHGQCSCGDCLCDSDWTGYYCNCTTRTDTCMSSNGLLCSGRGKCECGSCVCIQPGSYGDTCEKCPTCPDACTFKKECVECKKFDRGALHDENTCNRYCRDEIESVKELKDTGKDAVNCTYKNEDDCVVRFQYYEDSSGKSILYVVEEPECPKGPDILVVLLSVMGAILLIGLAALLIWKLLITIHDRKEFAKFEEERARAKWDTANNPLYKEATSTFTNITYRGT

binding result [1]: binds
B1: Fab 0012-LC-HPC4; VH-CH1 (Fab)
heavy: EVKLLESGGGLVQPGGSLKLSCAASGFDFSRYWMTWVRQAPGKGLEWIGEINPDSSTINYTPSLKDKFIISRDNAKNTLYLQMSEVRSEDTALYYCASGVFTSWGQGTLVTVSAASTKGPSVFPLAPCSRSTSESTAALGCLVKDYFPEPVTVSWNSGALTSGVHTFPAVLQSSGLYSLSSVVTVPSSSLGTKTYTCNVDHKPSNTKVDKRVESK
light: DVVMTQTPLSLPVSLGDQASISCRSSQSLVHRNGNTYFHWCLQKPGQSPKLLIYKVSNRFSGVPDRFSGSGSGTDFTLKISRVEAEDLGVYFCSQSTHVPYTFGGGTKLEIKRTVAAPSVFIFPPSDEQLKSGTASVVCLLNNFYPREAKVQWKVDNALQSGNSQESVTEQDSKDSTYSLSSTLTLSKADYEKHKVYACEVTHQGLSSPVTKSFNRGECEDQVDPRLIDGK
notes: Anti-TLT-1 Fab without tissue factor; also called 0010; 0010 Fab

FX activation: response with resting platelets relative to activated platelets [5]: ~20 % of the response with activated platelets
FVII-mediated FXa generation % Activity activated plts (n 1) [6]: 215%
FVIIa-mediated FXa generation % Activity activated plts (n 1) [6]: 143%
B4: Fab AP-3-LC.C34S-L4a-hTF.1-219; VH-CH1-HPC4 (other)
light: DIVMTQAAPSVPVTPGESVSISCRSSRSLLHSNGNTYLSWFLQRPGQSPQLLIYRMSNLASGVPDRFSGSGSGTAFTLRISRVEAEDVGVYYCMQHLEYPFTFGSGTKLEIKRTVAAPSVFIFPPSDEQLKSGTASVVCLLNNFYPREAKVQWKVDNALQSGNSQESVTEQDSKDSTYSLSSTLTLSKADYEKHKVYACEVTHQGLSSPVTKSFNRGECGSGGGGSGGGGSGGGGSSGTTNTVAAYNLTWKSTNFKTILEWEPKPVNQVYTVQISTKSGDWKSKCFYTTDTECDLTDEIVKDVKQTYLARVFSYPAGNVESTGSAGEPLYENSPEFTPYLETNLGQPTIQSFEQVGTKVNVTVEDERTLVRRNNTFLSLRDVFGKDLIYTLYYWKSSSSGKKTAKTNTNEFLIDVDKGENYCFSVQAVIPSRTVNRKSTDSPVECMGQEKGEFRE
heavy: QVQLQQSGAELVRPGTSVKISCKASGYTFTNYWLGWVKQRPGHGLEWIGDIYPGGGYNKYNENFKGKATLTADTSSSTAYMQLSSLTSEDSAVYFCAREYGNYDYAMDSWGQGTSVTVSSASTKGPSVFPLAPCSRSTSESTAALGCLVKDYFPEPVTVSWNSGALTSGVHTFPAVLQSSGLYSLSSVVTVPSSSLGTKTYTCNVDHKPSNTKVDKRVESKEDQVDPRLIDGK

Kd [7]: 94 nM
koff [7]: 0.000392 s⁻¹
kon [8]: 4170 M⁻¹ s⁻¹
B5: TLT1 (human TLT-1, reagent of the SPR studies, source NN) (receptor)
chain: QGIVGSLPEVLQAPVGSSILVQCHYRLQDVKAQKVWCRFLPEGCQPLVSSAVDRRAPAGRRTFLTDLGGGLLQVEMVTLQEEDAGEYGCMVDGARGPQILHRVSLNILPPEEEEETHKIGSLAENAFSDPAGSANPLEPSQDEKSIP

The next lines start with the binder.

B2: Factor VIIa (FVIIa) (protein)
chain: ANAFLEELRPGSLERECKEEQCSFEEAREIFKDAERTKLFWISYSDGDQCASSPCQNGGSCKDQLQSYICFCLPAFEGRNCETHKDDQLICVNENGGCEQYCSDHTGTKRSCRCHEGYSLLADGVSCTPTVEYPCGKIPILEKRNASKPQGRIVGGKVCPKGECPWQVLLLVNGAQLCGGTLINTIWVVSAAHCFDKIKNWRNLIAVLGEHDLSEHDGDEQSRRVAQVIIPSTYVPGTTNHDIALLRLHQPVVLTDHVVPLCLPERTFSERTLAFVRFSLVSGWGQLLDRGATALELMVLNVPRLMTQDCLQQSRKVGDSPNITEYMFCAGYSDGSKDSCKGDSGGPHATHYRGTWYLTGIVSWGQGCATVGHFGVYTRVSQYIEWLQKLMRSEPRPGVLLRAPFP
FVIIa amidolytic activity (chromogenic substrate S2288, A405) [2]: Binding of hTF.1-219 to FVIIa increases the FVIIa catalytic activity
FVIIa amidolytic activity (chromogenic substrate S2288, A405) [3]: stimulate FVIIa amidolytic activity in a concentration dependent manner indistinguishable from that induced by hTF.1-219
FVIIa amidolytic activity (chromogenic substrate S2288, A405) [4]: similarly stimulate FVIIa activity in a concentration dependent manner identical to that of hTF.1-219

B3: Fab AP-3-LC-L4a-hTF.1-219; VH-CH1-HPC4 (other)
light: B4 light with S39C
heavy: B4 heavy
FX activation: response with resting platelets relative to activated platelets [5]: ~20 % of the response with activated platelets
FVII-mediated FXa generation % Activity activated plts (n 1) [6]: 218%
FVIIa-mediated FXa generation % Activity activated plts (n 1) [6]: 164%

B6: Fab 0012-LC-L4a-hTF.1-219; VH-CH1-HPC4 (other)
light: DVVMTQTPLSLPVSLGDQASISCRSSQSLVHRNGNTYFHWCLQKPGQSPKLLIYKVSNRFSGVPDRFSGSGSGTDFTLKISRVEAEDLGVYFCSQSTHVPYTFGGGTKLEIKRTVAAPSVFIFPPSDEQLKSGTASVVCLLNNFYPREAKVQWKVDNALQSGNSQESVTEQDSKDSTYSLSSTLTLSKADYEKHKVYACEVTHQGLSSPVTKSFNRGECGSGGGGSGGGGSGGGGSSGTTNTVAAYNLTWKSTNFKTILEWEPKPVNQVYTVQISTKSGDWKSKCFYTTDTECDLTDEIVKDVKQTYLARVFSYPAGNVESTGSAGEPLYENSPEFTPYLETNLGQPTIQSFEQVGTKVNVTVEDERTLVRRNNTFLSLRDVFGKDLIYTLYYWKSSSSGKKTAKTNTNEFLIDVDKGENYCFSVQAVIPSRTVNRKSTDSPVECMGQEKGEFRE
heavy: EVKLLESGGGLVQPGGSLKLSCAASGFDFSRYWMTWVRQAPGKGLEWIGEINPDSSTINYTPSLKDKFIISRDNAKNTLYLQMSEVRSEDTALYYCASGVFTSWGQGTLVTVSAASTKGPSVFPLAPCSRSTSESTAALGCLVKDYFPEPVTVSWNSGALTSGVHTFPAVLQSSGLYSLSSVVTVPSSSLGTKTYTCNVDHKPSNTKVDKRVESKEDQVDPRLIDGK
FX activation: response with resting platelets relative to activated platelets [9]: 8 % of the response with activated platelets
FVII-mediated FXa generation % Activity lipidated TLT-1 [10]: 97%

From patent US20120178908A1 (Novo Nordisk, published 2012)
